# Data as given in patent publication US20050171004A1, “Use of cardiotrophin-1 to promote wound healing and counteract overt fibrosis” (priority 2003, published 2005).
# What was measured:
# cardiac fibroblasts [1] = test: Cell counting (Coulter counter); type: cell-based, rat; details: CT-1 for 24 hours
# Procedure: To determine absolute cell numbers after stimulation with CT-1, the total number of cells were counted. Equal numbers of cells were loaded into each well of 24 well plates and incubated with CT-1 for 24 hours. The cells were detached with trypsin, diluted in filtered phosphate buffered saline, and counted with Model ZM Coulter cell counter (Beckman Coulter, Fullerton, Calif.).
# cardiac fibroblasts [2] = test: Western analysis of signaling pathways activated by CT-1 in cardiac fibroblasts; type: cell-based, rat; details: cardiac fibroblasts incubated with CT-1
# Procedure: Fibroblasts were isolated from the hearts of 200-250 g adult male Sprague-Dawley rats as previously described (Hao et al., 2000, Am J Physiol Heart Circ Physiol 279: H3020-H3030). Briefly, hearts were subjected to Langendorff perfusion at 37° C. with Joklik's medium containing 0.1% collagenase (Worthington Biochemical Corporation, Lakewood, N.J.) for 20-25 minutes. Collagenase was neutralized by addition of an equal volume of DMEM/F12 medium containing 10% FBS and liberated cells were collected by centrifugation at 500×g for 5 minutes. Cells were resuspended in fresh DMEM/F12 containing 10% FBS and plated on 75 cm^2 culture flasks at 37° C. with 5% CO2 for 3 hours. Non adherent cells (myocytes) were removed by changing the culture media and adherent cells (mainly fibroblasts) were incubated in DMEM/F12 containing 10% FBS, 100 U/mL penicillin, 100 μg/mL streptomycin, and 100 μM ascorbate. Fibroblasts were used for experiments after the second passage and the purity of these cells was ≧95%, using routine phenotyping methods as previously described (Peterson et al., 1999, Cardiovasc Res 41: 575-585). […] Cells were rendered quiescent by incubation in serum-free medium for 24 hours then stimulated with CT-1 for specified times and lysed in RIPA buffer (150 mM NaCl, 1% Triton X-100, 0.5% deoxycholate, 0.1% SDS, 50 mM Tris) with 1× protease inhibitor cocktail (Sigma-Aldrich, Oakville, Ontario) and 10 mM NaF, 1 mM Na3VO4 and 1 mM EGTA.
# Protein concentrations of tissue and cell lysates were determined by the BCA method (Smith et al., 1985, Anal Biochem 150: 76-85). Proteins were separated by 8-12% SDS-PAGE and transferred to PVDF membrane (Roche, Indianapolis, Ind.) for 1 hour at 300 mA for small proteins or for 2 hours at 500 mA for proteins greater than 100 kDa. Membranes were blocked with 5% non-fat skim milk in tris-buffered saline containing 0.2% Tween 20 (TBST). […] Band intensity was quantified using a CCD camera imaging densitometer (GS670, Bio-Rad Laboratories (Canada) Ltd. Mississauga, Ontario). […]
# cardiac myofibroblasts = test: Estimation of membrane potential with DiBAC4(3) dye; type: cell-based, rat; details: superfusion with CT-1 for 4 minutes
# Procedure: Myofibroblast membrane potential was estimated using voltage sensitive DiBAC4(3) dye (Molecular Probes, Eugene, Oreg.). […] First passage myofibroblasts were plated on glass coverslips, allowed to attach, then incubated with 1 μM DiBAC4(3) in control solution containing: NaCl (140 mM), KCl (5 mM), HEPES (10 mM), CaCl2 (2.0 mM), MgCl2 (1.4 mM) and glucose (10 mM) for 20 minutes. The cells were visualized at 400× on an inverted microscope (Nikon Canada). DiBAC4 (3) was excited at 470 nm wavelength and emitted light at 525 nm was digitized and stored (Photon Technology International, Lawrenceville, N.J.). Fluorescence intensity was normalized to maximum fluorescence observed throughout the experiment. To ensure fluorescence intensity changes in response to altered membrane potential were occurring as expected, the cells were superfused with Tyrode's solution containing 1 μM DiBAC4(3) and 1.5 mM KCl or 15 mM KCl. Under these control conditions, DiBAC4(3) fluorescence decreased or increased indicating hyperpolarization or depolarization, respectively. For CT-1 experiments, CT-1 was diluted in control solution containing 1 μM DiBAC4(3). After ensuring a stable fluorescence signal, the cells were superfused with the CT-1 containing solution for 4 minutes, followed by washout. Fluorescence was monitored for a total of 10 minutes.
# cardiac fibroblasts [3] = test: Nuclear accumulation of PCNA; type: cell-based, rat; details: CT-1 for 24 hours
# Procedure: Cardiac fibroblasts were seeded onto cover slips and allowed to attach overnight. The cells were incubated with serum free media for 24 hours prior to stimulation with CT-1 for an additional 24 hours. The cells were then fixed with cold acetone, permeabilized and immunostained for PCNA and counter stained with Hoechst 33342. Images from 5 high power fields per slide were captured and cells were counted. Nuclei that were positive for PCNA were counted and expressed as a ratio to total nuclei.
# [4] = system: porcine coronary artery vascular smooth muscle cells; test: Chemotaxis of vascular smooth muscle cells (data not shown); type: cell-based
# cardiac fibroblasts [5] = test: Immunofluorescence of STAT3 nuclear accumulation; type: cell-based, rat; details: CT-1 for 5 minutes
# Procedure: Cardiac fibroblasts were seeded onto coverslips in 6 well dishes and allowed to attach overnight in media containing 10% serum. The cells were rendered quiescent in serum free media for 24 hours before being stimulated with CT-1 for specified times. The media was removed, cells were rinsed with PBS and fixed with 4% paraformaldehyde. Cells were permeabilized with 0.1% Triton X-100 and incubated with primary antibodies, biotinylated secondary antibodies, and streptavidin FITC. Nuclei were stained with Hoechst 33342. The cells were visualized with epifluorescent microscopy with appropriate filters (Nikon Canada).
# cardiac fibroblasts [6] = test: Western analysis of phosphorylation of translational regulatory proteins; type: cell-based, rat; details: stimulation with CT-1
# Procedure: Protein concentrations of tissue and cell lysates were determined by the BCA method (Smith et al., 1985, Anal Biochem 150: 76-85). Proteins were separated by 8-12% SDS-PAGE and transferred to PVDF membrane (Roche, Indianapolis, Ind.) for 1 hour at 300 mA for small proteins or for 2 hours at 500 mA for proteins greater than 100 kDa. Membranes were blocked with 5% non-fat skim milk in tris-buffered saline containing 0.2% Tween 20 (TBST). Proteins were visualized with ECL Plus (Amersham) after probing with primary and secondary antibodies. Band intensity was quantified using a CCD camera imaging densitometer (GS670, Bio-Rad Laboratories (Canada) Ltd. Mississauga, Ontario).
# To determine the effect of CT-1 on protein synthesis in cardiac fibroblasts we measured incorporation of ^3H-labeled leucine. […] Since the activity of translational regulatory proteins is modified by phosphorylation, we used phospho-specific antibodies to determine if CT-1 directly influenced the activity of these regulatory proteins.
# We then determined the effect of pharmacologic inhibitors on the activation of this signaling cascade.
molecule,measurement,setting,value
"cardiotrophin-1 (protein, UniProt Q16619 1-201, looked up, gp130 signaling cytokine of the LIF or IL-6 superfamily; 201 amino acids as a mature protein, 21.5 kDa) Cardiotrophin-1: MSRREGSLEDPQTDSSVSLLPHLEAKIRQTHSLAHLLTKYAEQLLQEYVQLQGDPFGLPSFSPPRLPVAGLSAPAPSHAGLPVHERLRLDAAALAALPPLLDAVCRRQAELNPRAPRLLRRLEDAARQARALGAAVEALLAALGAANRGPRAEPPAATASAASATGVFPAKVLGLRVCGLYREWLSRTEGDLGQLLPGGSA",total cell number,cardiac fibroblasts [1],increase in total cell number
same,"phosphorylation of gp130, Jak1, Jak2, STAT3, STAT1",cardiac fibroblasts [2],resulted in phosphorylation
same,"phosphorylation of p42/44 MAPK, p38 MAPK, JNK and Src",cardiac fibroblasts [2],observed phosphorylation
same,Phosphorylation of STAT5 or STAT6,cardiac fibroblasts [2]; data not shown,not observed
same,cell membrane potential (DiBAC4(3) fluorescence),cardiac myofibroblasts,pronounced hyperpolarization
same,nuclear expression of PCNA,cardiac fibroblasts [3],increased nuclear expression of PCNA
same,chemotactic effect,[4],does appear to have a chemotatic effect
same,nuclear accumulation of STAT3,cardiac fibroblasts [5],nuclear accumulation of STAT3
same,"phosphorylation of Akt T308/S473, p70 S6 kinase T389 and S421/T424, Mnk1, eIF4E, 4E-BP1 and S6 ribosomal protein",cardiac fibroblasts [6],induced an increase in phosphorylation
